Measurements taken from patent publication US20210070847A1 (UNIVERSITY OF FLORIDA RESEARCH FOUNDATION, published 2021).
Residue numbers refer to the chain shown, from its start.

B1: monoclonal antibody 94-3A2-2 (antibody, V domains shown)
VH: QVQLQQSGAELAKPGASVKMSCKASGYTFTTYWMHWIKQRPGQGLEWIGYINPSNDYTEYNQKFKDEATLTVDKSSSTAYMQLNSLISEDSAVYYCAHPAYWGQGTLVTVSS
VL: ENVLTQSPAIMSASPGEKVTMTCSASSSVNYMHWYQQKSGTSPKLWIYDTSKLASGVPGRFSGSGSGNSYSLTISSMEAEDVATYYCFQGSGYPFTFGSGTKLEIKR
B2: monoclonal antibody 94-3A6 (antibody, V domains shown)
VH: QVQLQQPGTELVKPGASVKLSCKASGYPFTNYWMHWVKQRPGQGLEWIGNINPTNGDTNYNEKFKSKATLTVDKSSSTAYMQLSSLTSEDSAVYYCTRVTYWGQGTTLTVSS
VL: B1 VL with S28N, Y35F, K38E, G40S, F95Y, S99G

What was measured:
[1] = molecular target: T1, human 0N4R tau with the P301L mutation (expressed in JNPL3 tau transgenic mice) (human, UniProt P10636 1-758); experiment: immunohistochemistry of spinal cord sections
T1 construct: Tested as inclusions in spinal cord sections of JNPL3 mice; also called tau inclusions of JNPL3 mice
Method: Paraffin embedded tissues from JNPL3 tau transgenic, PS19 tau-transgenic and non-transgenic (NTg) mice were used. All paraffin embedded, formalin fixed human brain tissues from de-identified donors were obtained through a human brain tissue bank. Sequential tissue sections were deparaffinized with xylenes and sequentially rehydrated with graded ethanol solutions (100-70%). Antigen retrieval was performed by incubating sections in a steam bath for 30 minutes. Endogenous peroxidase activity was quenched with 1.5% hydrogen peroxide/0.005% Triton-X-100/Tris-buffered Saline (TBS) for 20 minutes. Sections were blocked with 2.5% horse serum then incubated overnight at 4° C. with primary antibody. Following washing with TBS, sections were incubated with Vector ImmPress anti-mouse IgG peroxidase (Vector Laboratories, Burlingame, Calif., USA) for 30 minutes. Sections were washed with TBS and then developed with 3, 3′diaminobenzidine (DAB kit; Vector Laboratories). Reactions were stopped by immersing the slides in TBS and sections were counterstained with Mayer's hematoxylin (Sigma Aldrich, St. Louis, Mo.). Next, sections were dehydrated with an ascending series of ethanol solutions (70%-100%) followed by xylenes and coverslipped using cytoseal (Thermo Scientific, Waltham, Mass.).
Each of the 83E4, 94-3A2-2, 94-3A6 and 94-4F1 binds R4 and can recognize 3- and 4-repeat tau. […]

[2] = molecular target: T2, recombinant full-length human 2N/4R tau (human, UniProt P10636 2-758); experiment: immunoblot of recombinant tau proteins
T2 construct: Expressed in E. coli from pRK172 and purified; also called 4-repeat tau

[3] = molecular target: T3, recombinant full-length human 2N/3R tau (human, UniProt P10636 2-758); experiment: immunoblot of recombinant tau proteins
T3 construct: Expressed in E. coli from pRK172 and purified; also called 3-repeat tau

[4] = molecular target: T4, recombinant glutathione S-transferase (GST) tagged human tau MTBD R4 (human); experiment: summary of immunoblots of GST-tagged MTBD fragments
T4 construct: Expressed in E. coli; total bacterial lysates were blotted after SDS-PAGE; also called GST/R4; not shown: glutathione S-transferase (GST) tag encoded by bacterial expression plasmid pGEX-2T; junction
T4 chain: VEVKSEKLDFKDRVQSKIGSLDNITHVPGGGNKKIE
Description: For the generation of recombinant glutathione S-transferases (GST) tagged human MTBD R1-3 (residues 244-336 relative to ON/4R tau), R1 (residues 244-274 relative to ON/4R tau), R3 (residues 306-336 relative to ON/4R tau) and R4 (residues 337-372 relative to ON/4R tau) proteins, the corresponding cDNA sequences were amplified by PCR with the respective oligonucleotides with added BamHI and EcoRI restriction sites and cloned in these sites of bacterial expression plasmid pGEX-2T. These proteins were expressed in E. coli BL21 (DE3)/RIL with isopropyl β-D-1-thiogalactopyranoside induction. The bacteria were lysed with 2% SDS and following the addition of SDS sample buffer equal amounts of total bacterial lysates were resolved by SDS-PAGE and analyzed by immunoblotting.
Mice were immunized with the synthetic peptides corresponding to the MTBD in 4R human tau 244-372 (K18) conjugated to 21-140 αS at the N-terminus or 21-140 αS at the N-terminus and Aβ1-42 at the C-terminus. […] This selectivity for tau was also confirmed by detection of tau pathology by immunohistochemistry of human AD post-mortem brain tissue with abundant tau pathology. […] The specificity of these monoclonal antibodies was further determined by probing immunoblots of recombinant full-length human 2N/3R and 2N/4R tau and K18 (4R) tau fragment (FIG. 2). […]

Aβ = Aβ (UniProt P05067 672-713); experiment: ELISA screening of hybridoma media on coated peptide
Method: (§1) All hybridoma clones were screened for reactivity to K18 by enzyme-linked immunosorbent assay (ELISA). MaxiSorp plates (Thermo Scientific, Waltham, Mass.) or Immulon 4HBX plates (ThermoFisher Scientific, Waltham, Mass.) were coated with 1 μg/ml human recombinant tau or αS proteins or Aβ in PBS or 100 mM sodium bicarbonate and blocked with 5% FBS/PBS or 1% Block ACE in PBS. Media from the hybridomas were applied to plates, which were then incubated at room temperature for 3 hours. Next, the plates were washed with PBS and incubated with goat anti-mouse secondary antibody conjugated to horse radish peroxidase (HRP; Jackson Immuno Research Labs, West Grove, Pa.) for 1 hour at room temperature. Then, plates were washed and TMB substrates (Pierce, Rockford, Ill.) were applied until color changes were observed. Reactions were then quenched with 1M HCl or 85% 0-Phosphoric acid and absorbance was measured at 450 nm. Clones that were positive by ELISA were transferred to larger culture plates as needed. […]
(§2) Mice were immunized with the synthetic peptides corresponding to the MTBD in 4R human tau 244-372 (K18) conjugated to 21-140 αS at the N-terminus or 21-140 αS at the N-terminus and Aβ1-42 at the C-terminus. […] The specificity of these monoclonal antibodies was further determined by probing immunoblots of recombinant full-length human 2N/3R and 2N/4R tau and K18 (4R) tau fragment (FIG. 2). […]

[5] = molecular target: T5, human 1N4R tau with the P301S mutation (expressed in PS19 tau transgenic mice) (human, UniProt P10636 1-758); experiment: immunoblot of total mouse brain lysates
T5 construct: Tested in total brain lysates (immunoblot) and spinal cord sections (immunohistochemistry) of PS19 mice; also called human tau in PS19 mice; over-expressed 1N4R human tau in PS19 brain
Method: Preparation of total mouse brain protein lysates Tau KO, PS19 Tg or NTg mice were euthanized by CO₂ inhalation and the brains were harvested. Brain tissue was homogenized in 2% SDS/50 mM Tris, pH 7.5 using a probe sonicator and then incubated for 10 min at 100° C. Protein concentrations were determined by BCA assay using BSA as the standard. Sample buffer was added and equal amounts of protein (10 μg) were resolved by SDS-PAGE and analyzed by immunoblot.
To assess the selectivity of these antibodies for human tau, immunoblots of total mouse brain lysates from tau KO, NTg and PS19 tau Tg mice were probed with these antibodies (FIG. 3). All of these antibodies detected human tau in whole brain lysates from PS19 mice. Antibodies 81A11, 83E4 and 94-3A2-2 reacted weakly with endogenous tau in NTg mice. […] All the antibodies were specific for tau as shown using the lysates from tau KO mice. A non-specific band at approximately 30 kDa present in all the lysates was attributed to non-specific binding of the secondary antibody shown with an immunoblot probed only with secondary antibody.

[6] = molecular target: recombinant human α-synuclein (human, UniProt P37840 1-140); experiment: ELISA screening of hybridoma media on coated protein
Method: as §1, §2

T5 sequence (P10636 other isoform, or with tags, fused parts or gaps P301S P301S limits assumed): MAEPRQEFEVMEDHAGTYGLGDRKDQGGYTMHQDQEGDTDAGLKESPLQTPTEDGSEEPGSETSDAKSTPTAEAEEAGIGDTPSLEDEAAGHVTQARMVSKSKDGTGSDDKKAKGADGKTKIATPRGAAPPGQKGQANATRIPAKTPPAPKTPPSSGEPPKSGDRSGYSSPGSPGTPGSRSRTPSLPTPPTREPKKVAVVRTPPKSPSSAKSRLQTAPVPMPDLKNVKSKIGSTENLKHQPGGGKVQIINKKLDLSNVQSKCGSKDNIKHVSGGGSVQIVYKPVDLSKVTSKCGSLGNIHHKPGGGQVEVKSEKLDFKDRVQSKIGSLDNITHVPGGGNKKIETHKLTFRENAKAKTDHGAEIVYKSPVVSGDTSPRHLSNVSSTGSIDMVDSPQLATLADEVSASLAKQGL
T3 sequence (P10636 other isoform, or with tags, fused parts or gaps limits assumed): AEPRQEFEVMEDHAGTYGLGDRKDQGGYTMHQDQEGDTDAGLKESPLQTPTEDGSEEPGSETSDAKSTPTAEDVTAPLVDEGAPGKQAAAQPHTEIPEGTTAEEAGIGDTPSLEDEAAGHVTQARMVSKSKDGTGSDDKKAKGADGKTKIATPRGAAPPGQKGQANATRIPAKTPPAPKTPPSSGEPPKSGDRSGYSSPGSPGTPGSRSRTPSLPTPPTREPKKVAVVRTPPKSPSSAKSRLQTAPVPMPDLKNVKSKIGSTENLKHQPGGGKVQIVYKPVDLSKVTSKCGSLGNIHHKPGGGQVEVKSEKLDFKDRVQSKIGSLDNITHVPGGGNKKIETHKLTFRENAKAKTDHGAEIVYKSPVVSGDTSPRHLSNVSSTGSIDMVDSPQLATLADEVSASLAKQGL
T1 sequence (P10636 other isoform, or with tags, fused parts or gaps P301L P301L limits assumed): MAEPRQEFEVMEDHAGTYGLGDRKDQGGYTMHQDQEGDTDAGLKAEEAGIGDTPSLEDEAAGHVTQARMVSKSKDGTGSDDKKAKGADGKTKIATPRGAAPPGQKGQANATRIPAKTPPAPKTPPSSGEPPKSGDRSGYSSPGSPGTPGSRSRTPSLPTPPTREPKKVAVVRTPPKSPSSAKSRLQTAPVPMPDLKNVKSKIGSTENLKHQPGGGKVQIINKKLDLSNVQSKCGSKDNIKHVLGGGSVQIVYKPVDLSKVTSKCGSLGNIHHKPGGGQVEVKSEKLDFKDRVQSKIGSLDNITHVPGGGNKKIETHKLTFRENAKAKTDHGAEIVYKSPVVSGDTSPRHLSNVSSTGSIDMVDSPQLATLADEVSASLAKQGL
Aβ, sequence (P05067 672-713): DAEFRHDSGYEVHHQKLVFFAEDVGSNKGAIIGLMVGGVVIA
T2 sequence (P10636 other isoform, or with tags, fused parts or gaps limits assumed): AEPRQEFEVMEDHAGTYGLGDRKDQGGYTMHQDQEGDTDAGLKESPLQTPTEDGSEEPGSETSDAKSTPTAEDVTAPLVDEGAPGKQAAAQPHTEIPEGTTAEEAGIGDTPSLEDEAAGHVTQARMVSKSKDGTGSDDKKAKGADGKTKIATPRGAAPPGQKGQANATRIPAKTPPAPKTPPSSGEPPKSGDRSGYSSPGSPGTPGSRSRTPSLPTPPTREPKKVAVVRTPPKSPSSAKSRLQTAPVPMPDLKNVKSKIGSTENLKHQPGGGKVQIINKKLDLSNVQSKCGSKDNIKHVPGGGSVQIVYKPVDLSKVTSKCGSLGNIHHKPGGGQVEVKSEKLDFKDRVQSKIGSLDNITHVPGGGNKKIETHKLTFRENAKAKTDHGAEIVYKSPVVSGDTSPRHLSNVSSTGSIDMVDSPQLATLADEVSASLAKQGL

| Binder | binding result [1] | binding result [2] | binding result [3] | binding result [4] | binding result (Aβ) | binding result [5] | binding result [6] |
| --- | --- | --- | --- | --- | --- | --- | --- |
| B1 | binds | binds | binds | binds | no binding | binds | no binding |
| B2 | binds | binds | binds | binds | no binding | binds | no binding |
